According to patent US20250282866A1 (VIGIL NEUROSCIENCE, published 2025):

T1: human TREM2 (human, UniProt Q9NZC2 19-174, limits assumed)
T1 construct: also called triggering receptor expressed on myeloid cells 2
T1 sequence: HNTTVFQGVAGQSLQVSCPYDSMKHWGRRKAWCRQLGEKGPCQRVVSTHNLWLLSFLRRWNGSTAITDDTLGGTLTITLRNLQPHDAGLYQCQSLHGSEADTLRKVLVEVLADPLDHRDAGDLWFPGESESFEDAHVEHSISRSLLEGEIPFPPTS

B1: V49 (antibody, V domains shown)
VH: EVQLVQSGAEVKKPGESLKISCKGSGYSFNSYWIAWVRQMPGKGLEWMGTIYPGDSDTRLSPSFQGQVTISADKSISTAYLQWSSLKASDTAMYFCARSRTFYYDSSDYFDYWGQGTLVTVSS
VL: DIQMTQSPSSVSASVGDRVTITCRASQGISSWLAWYQQKPGKAPKLLIYAASSRQNGVPSRFSGSGSGTDFTLTISSLQPEDFATYFCQQADSYPRTFGQGTKLEIK
B2: V50 (antibody, V domains shown)
VH: EVQLVQSGAEVKKPGESLKISCKGSGYSFGSYWIAWVRQMPGKGLEWMGVIYPGDSDTRYSPSFQGQVTISADKSISTAYLQWSSLKASDTAMYFCARQRTFYYDSSDYLDYWGQGTLVTVSS
VL: DIQMTQSPSSVSASVGDRVTITCRASQGISSWLAWYQQKPGKAPKLLIYAASSRQNGVPSRFSGSGSGTDFTLTISSLQPEDFATYFCQQADSLPRTFGQGTKLEIK
B3: V53 (antibody, V domains shown)
VH: EVQLVQSGAEVKKPGESLKISCKGSGYSFTSYWIAWVRQMPGKGLEWMGIIYPGDSDTRYSPHFQGQVTISADKSISTAYLQWSSLKASDTAMYFCARQRTFYYDSSDYFDYWGQGTLVTVSS
VL: DIQMTQSPSSVSASVGDRVTITCRASQGISSWLAWYQQKPGKAPKLLIYAASSLQNGVPSRFSGSGSGTDFTLTISSLQPEDFATYFCQQADSFPRTFGQGTKLEIK
B4: V52 (antibody, V domains shown)
VH: EVQLVQSGAEVKKPGESLKISCKGSGYSFESYWIAWVRQMPGKGLEWMGIIYPGDSDTRYSPSFQGQVTISADKSISTAYLQWSSLKASDTAMYFCARGRTFYYDSSDYFDYWGQGTLVTVSS
VL: DIQMTQSPSSVSASVGDRVTITCRASQGISSWLAWYQQKPGKAPKLLIYAASSLQRGVPSRFSGSGSGTDFTLTISSLQPEDFATYFCQQADRFPRTFGQGTKLEIK
B5: V51 (antibody, V domains shown)
VH: EVQLVQSGAEVKKPGESLKISCKGSGYSFTSYWIAWVRQMPGKGLEWMGIIYPGDSDVRYSPSFQGQVTISADKSISTAYLQWSSLKASDTAMYFCARGRTFYYDSSDYFDNWGQGTLVTVSS
VL: DIQMTQSPSSVSASVGDRVTITCRASQGISSWLAWYQQKPGKAPKLLIYAASSRQNGVPSRFSGSGSGTDFTLTISSLQPEDFATYFCQQADSFPRTFGQGTKLEIK
B6: V60 (antibody, V domains shown)
VH: EVQLVQSGAEVKKPGESLKISCKGSGYHFTSYWIAWVRQMPGKGLEWMGIIYPGDSDVRYSPSFQGQVTISADKSISTAYLQWSSLKASDTAMYFCARQRTFYYDSSDYSDYWGQGTLVTVSS
VL: DIQMTQSPSSVSASVGDRVTITCRASQGISSWLAWYQQKPGKAPKLLIYAASSLQRGVPSRFSGSGSGTDFTLTISSLQPEDFATYFCGQADSFPRTFGQGTKLEIK

Key:
[1] = target: T1, human TREM2; assay: 2nd screen 2 nM
[2] = target: T1, human TREM2; assay: 2nd screen 10 nM
[3] = target: T1, human TREM2; assay: 1st screen (110 nM or 10 nM)

| Binder | Binding Signal (fold over 6E7 Parental antibody) [1] [fold] | Binding Signal (fold over 6E7 Parental antibody) [2] [fold] | Binding Signal (fold over 6E7 Parental antibody) [3] [fold] |
| --- | --- | --- | --- |
| B1 | 5.02 | 6.58 | 6.51 |
| B2 | 3.39 | 4.16 | 4.1 |
| B3 | 0.66 | 1.17 | 1.25 |
| B4 | 1.78 | 3.09 | 3 |
| B5 | 1.83 | 3.18 | 2.81 |
| B6 | 3.35 | 3.63 | 3.26 |
